# Reference: the nanobody polyreactivity screen of Harvey et al. (2022)
# Assay: yeast display, Sf9 membrane polyspecificity reagent, FACS + sequencing; frameworks hold sequencing errors
# Outline: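 Using colony PCR, genes from sorted yeast display clones were amplified, then sequenced on MiSeq at 2 × 250 and filtered by CDR length. The clones had been stained with 10% biotinylated, detergent-solubilized Sf9 membrane reagent for 1 hour at 4 °C and sorted by FACS into low and high (top ~1%) gates on anti-HA and streptavidin fluorescence. Polyreactivity labels come from the gate of origin.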
row,Sequence,polyreactivity (PSR sort gate)
1,QVQLVESGGGLVQAGGSLRLSCAASGLTFSVYAMGWYRQAPGKERELVAAITSSGRTYYADSVKGRFTISRDNAKNTVYLQMNSLKPEDTAVYYCAAGYKSGPRRYYYWGQGTQVTVSS,high polyreactivity
2,QVQLVESGGGLVQAGGSLRLSCAASGLTFSVYTMGWYRQAPGKERELVAAITTSGGRTYYADSVKGRFTISRDNAKNTVYLQMNSLKPVDPAVYYCAAVRTGDTTGTMGYWGQGTQVTVSS,high polyreactivity
3,QVQLVESGGGLVQAGGSLRLSCAASGLTFSYYAMGWYRQAPGKERELVAAISWSGGITYYADSVKGRFKISRDNAKNTVYLQMNSLKPEDTAVYYCAADGYPTLFDYWGQGTQVTVAS,high polyreactivity
4,QVQLVESGGGLVQAGGSLRLSCAASGLTFSYYAMGWYRQAPGKERELVAGISSSGGTTYYADSVKGRFTISRDNAKNTVYLQMNSLKPEDTAVYYCATRRHYGSFWYDYWGQGTQVTVSS,high polyreactivity
5,QVQLVESGGGLVQAGGSLRLSCAASGLTFTAYAMGWYRQAPGKERELVAAISVRGGRTYYADSVKGRFTISRDNAKNTVYLQMNSLKPEDTAVYYCNAVRFISARYDYWGQGTQVTVSS,high polyreactivity
6,QVQLVESGGGLVQAGGSLRLSCAASGLTFTGYAMGWYRQAPGKERELVAAISRGDSTYYAYSVNGRFTISRDNAKNTVYLQMNSLKPEDTAVYYCAAYKGYGRRPGVSGYYWGQGTQVTVSS,high polyreactivity
7,QVQLVESGGGLVQAGGSLRLSCAASGLTFTKYAMGWYRQAPGKERELVAAINRRGGSTYYADSVKGRFTISRDNAKNTVYLQMNSLKPEDTAVYYCAKRKSVRSTPSYEYWGQGTQVTVSS,high polyreactivity
8,QVQLVESGGGLVQAGGSLRLSCAASGLTFTRYDMGWYRQAPGKERELVASISQSGTSTHYADSVKGRFTISRDNAKNTVYLQMNSLKPEDTAVYYCAADYVSRYYVKWYRGFDYWGQGTQVTVSS,low polyreactivity
9,QVQLVESGGGLVQAGGSLRLSCAASGLTFTTYAMGWSRQAPGKERELVAAISRRGSRTYYADSVKGRFTISRDNAKNTVYLQMNSLKPEDTAVYYCNALTGSFKTYSFDYWGQGTQVTVSS,high polyreactivity
10,QVQLVESGGGLVQAGGSLRLSCAASGLTFTYYALGWYRQAPGKERELVAAISSSGSDTYYADSVKGRFTISRDNAKNTVYLQMNSLKPEDTAVYYCAAVLTGLSPDFEYEYWGQGTQVTVSS,low polyreactivity
11,QVQLVESGGGLVQAGGSLRLSCAASGLTFTYYAMGWYRQAPGKERELVAAISWSGGSTYYADSVKGRFTISRDKAKNTVYLQMNSLKPEDTAVYYCAAVDPFTPYDRTYTTDGRESDYWGQGTQVTVSS,low polyreactivity
12,QVQLVESGGGLVQAGGSLRLSCAASGLTFTYYAMGWYRQAPGKERELVAAITGGARTYYADSVKGRFTISRDNAKNTVYLQMNSLKPEDTAVYYCATQGAQKRYKYNYWGQGTQVTVSS,high polyreactivity
13,QVQLVESGGGLVQAGGSLRLSCAASGLTFVDNAMGWYRQAPGQERELVAAITKRGGRTYYADSVKGRFTISRDNAKNTVYLQMNSLKPEDTAVNYCARESGNDSSRRLDYWGQGSQVTVSS,low polyreactivity
14,QVQLVESGGGLVQAGGSLRLSCAASGLTFVDNAMGWYRQAPRKERELVAGITQSGGSTNYADSVKGRFTISRDNAKNTVYLQMNSLKPEDTAVYYCAKDTYRAYFRWEYGYWGQGTQVTVSS,low polyreactivity
15,QVQLVESGGGLVQAGGSLRLSCAASGLTFVEYAMAWYRQAPGKERELVAAITSTDGTNYADSVKGRFTISRDNAKNTVYIQMNSLKPADTAVYYCFTLAQDFYFWYYYWGQGTQVTVSS,high polyreactivity
16,QVQLVESGGGLVQAGGSLRLSCAASGLTFVKNVMGWYRQAPGKERELVAAISRRGGSTYYADSVKGRFTISRDNAKNTVYLQMNSLKPEDTAVYYCNAVLNQLSYIYPAVGYWGQGTQVTVSS,high polyreactivity
17,QVQLVESGGGLVQAGGSLRLSCAASGLTFVNYAMGWYRQAPGKERELVATISKTGGSTYYADSVKGRFTISRDNAKNTVYLQMNSLKPEDTAVYYCAARRARRSGYYYWGQGTQVTVSS,high polyreactivity
18,QVQLVESGGGLVQAGGSLRLSCAASGLTFVSYVMGWYRQAPGKERELVAAISSSGGRTYYADSVKGRFTISRDNAKNTVYLQMNSLKPEDTAVYYCAVYGYHEGGYWGQGTQVTVSS,high polyreactivity
19,QVQLVESGGGLVQAGGSLRLSCAASGLTFVTYVMGWYRLAPGKERELVAAISYSGGSTYYADSVKARFTISRDNAKNTVYLLMNSLKPEDTAVYYCAAEWYGYEEDDYWGQGTQVTVSS,low polyreactivity
20,QVQLVESGGGLVQAGGSLRLSCAASGLTFVTYVMGWYRPAPGKERELVAAISYSGGSTYYADSVKGRFTISRDNAKNTVYLQMNSLKPEDTAVYYCAAEWYGYQEDDYWGQGTQVTVSS,low polyreactivity
21,QVQLVESGGGLVQAGGSLRLSCAASGLTFVWYVMGWYRQAPGKERELVAAITSGGTTYYADSVKGRFTISRDNAKNTVYLQMNSLKPEDTAVYYCAAQWAGYGDLPWPYSVIVEFYYWGQGTQVTVSS,low polyreactivity
22,QVQLVESGGGLVQAGGSLRLSCAASGLTFVYNAMGWYRQAPGKERELVADISYDGGGTYYADSVKGRFTISRDNAMNTVYLQMNSLKPEDTAVYYCAKRAFGSQGEISYTPPGYDSWGQGTQVTVSS,low polyreactivity

row,Sequence,polyreactivity (PSR sort gate)
1,QVQLVESGGGLVQAGGSLRLSCAASGLTFVYYAMGWYRQAPGKERELVAAISGVGSTHYADSVKGRFTISRDNANNTVYLQMNSLKPEDTAVYYCNADYAYFWGWYGDWGQGTQVTVSS,low polyreactivity
2,QVQLVESGGGLVQAGGSLRLSCAASGLTFWRYTMGWYRQAPGKERELVAVITYRGGSTYYADSVKGRFTISRDNAKNTVYLQMNSLKPEDTAVYYCAAGRRTYGLTYDYWGQGTQVTVSS,high polyreactivity
3,QVQLVESGGGLVQAGGSLRLSCAASGLTFWYYAMGWYRQAPGKERELVARITRSGVGTYYADSVKGRFTISRDNAKNTVYLQMNSLKPEDTAVYYCNARYQYSWVRYGYDYWGQGTQVTVSS,high polyreactivity
4,QVQLVESGGGLVQAGGSLRLSCAASGLTFWYYGMGWYRQAAGKERELDAAISKTGGRTYYADSVKGRFTISRDNAKNTVYLQMNSLKPEDTAVYYCAADTDVLKGTTGFEYWGQGTQVTVSS,low polyreactivity
5,QVQLVESGGGLVQAGGSLRLSCAASGLTFYAYVMGWYRPAPGNERELVAAISGGGSTYYADSVKGRFTISRDNAKNSVYLEMISLKPEDTAVYYCNAELSLWDLGYDYWVQGTQVTVSS,low polyreactivity
6,QVQLVESGGGLVQAGGSLRLSCAASGLTFYFYAMGWYRQAPGKERELVAAISYSGGSTYYADSVKGRFTISRDKAENTVYLQMNSLKPEDTAVYYCAARPTDGSGWPYRWTSDYWGHGTQVTVSS,low polyreactivity
7,QVQLVESGGGLVQAGGSLRLSCAASGLTFYGNAMGWYRQAPGKERELVADISLSGGRTFYADSVKGRFTISRDNAKNTVYLQMNSLKPEDTAVYYCAAVWRTGWYYEYYHWGQGTQVTVSS,low polyreactivity
8,QVQLVESGGGLVQAGGSLRLSCAASGLTFYGNARGWYRQAPGKERELVADISLSGGRTFYADSVKGRFTISRDNAKHTVYLQMNSLKPEDTAVYYCANTYTSGYHRRYDYWGQGTQVTVSS,low polyreactivity
9,QVQLVESGGGLVQAGGSLRLSCAASGLTFYIYAMGWYRQAHGKERELVASISSSGGITYYADSVKGRFTISRDNAKNTVYLQMNSLKPEDTAVYYCAATYSHRRGDYWGQGTQVTVSS,high polyreactivity
10,QVQLVESGGGLVQAGGSLRLSCAASGLTFYQNAMGWYRQAPGKEREFVASITRRGGRTYYADSVKGRFTISRDNAKNTVYLQMNSLKPEDTAVYYCAATFPQYQAIKEDYWGQGTQVTVSP,high polyreactivity
11,QVQLVESGGGLVQAGGSLRLSCAASGLTFYQYTMGWYRQAPGKERELVAAISRRGGSTYYADSVKGRFTISRDNAKNTVYLQMNSLKPEDTAVYYCAARALRYSRDFDYWGQGTQVTVSS,high polyreactivity
12,QVQLVESGGGLVQAGGSLRLSCAASGLTFYRNVMGWYRQAPGKERELVAAISGNGGSTYYADSVKGRFTISRDNAKNTVYLQMNSLKPEDTAVYYCATRAYDTGYGYWGQGTQVTVSS,high polyreactivity
13,QVQLVESGGGLVQAGGSLRLSCAASGLTFYRYAMGWYRQAPGKERELVAAITSGGGRTYYADSVKGRFTISRDNAKNTVYLQMNSLKPEDTAVYYCAADRGDYRWRGLTPSSYGYWGQGTQVTVSS,high polyreactivity
14,QVQLVESGGGLVQAGGSLRLSCAASGLTFYSYAMGWYRQAPGKERELVATIRWSGGSTYYADSVKGRFTISRDNAKNTVYLQMNSLKPEDTAVYYCATSSTHSRGDEYWGQGTQVTVSS,low polyreactivity
15,QVQLVESGGGLVQAGGSLRLSCAASGLTFYVNARGWYRQAPGKERELVATISGSGSTNYADSVKGRFTISRDNAKNTVYLQMNSLKPEDTAVYDCNAGWAQDPSNYWGQGTQVTVSS,high polyreactivity
16,QVQLVESGGGLVQAGGSLRLSCAASGLTFYYYAMGWYRQAPGKEREFVAAISYRGGRTYYADSVKGRFTISRDNAKNTVYLQMNSLKPEDTAVYYCAKLGKSRWWGVGPLEMDSWGQGTQVTVSS,high polyreactivity
17,QVQLVESGGGLVQAGGSLRLSCAASGLTFYYYAMGWYRQAPGKERELVARISSGTSTYYADSVKGRFTISRDNAKNTVYLQMNSLKPEDTAVYFCNARRKLGSTHGPWGGLVYWGQGTQVTVSS,low polyreactivity
18,QVQLVESGGGLVQAGGSLRLSCAASGLTFYYYVMGWYRQAPGKERELVAAISYSGGRTYYADSVKGRFTISRDNAKNTVSLQMNSLKPEDTAVYYCAAQSRYGGKFYYWGQGTQVTVSS,high polyreactivity
19,QVQLVESGGGLVQAGGSLRLSCAASGLTIAAYAMGWYRQAPGKERELVAAITQRGGSTYYADSVKGRFTISRDNAKNTVYLQMNSLKPEDTAVYYCAADSTWWWWKLYSPYGYDYWGQGTQVTVSS,low polyreactivity
20,QVQLVESGGGLVQAGGSLRLSCAASGLTIYHYAMGWYRQAPGKERELVAAISWNGGSTYYADSVKGRFTFSRDNAKNTVYLQMNSLKPEDTAVYYCAVVFNPHRYTGVLAGYDYWGQGTQVTVSS,high polyreactivity
21,QVQLVESGGGLVQAGGSLRLSCAASGLTIYYYAMGWYIQAPGKEREFVAAISWHGGSTYYADSVKGRFTISRDNAKNTVYLQMNSLKPEDTAVYYCAADIYLRGFHYDYWGLGTQVTVSS,low polyreactivity
